Among the data in patent US20080274977A1 are % inhibition values, retold here.

Experiment [1] addresses N-type calcium channel (receptor binding screen of Example 1).
Experiment [2] deals with T1, chemokine CXCR2 (IL-8Rb), P25025.
T1 chain: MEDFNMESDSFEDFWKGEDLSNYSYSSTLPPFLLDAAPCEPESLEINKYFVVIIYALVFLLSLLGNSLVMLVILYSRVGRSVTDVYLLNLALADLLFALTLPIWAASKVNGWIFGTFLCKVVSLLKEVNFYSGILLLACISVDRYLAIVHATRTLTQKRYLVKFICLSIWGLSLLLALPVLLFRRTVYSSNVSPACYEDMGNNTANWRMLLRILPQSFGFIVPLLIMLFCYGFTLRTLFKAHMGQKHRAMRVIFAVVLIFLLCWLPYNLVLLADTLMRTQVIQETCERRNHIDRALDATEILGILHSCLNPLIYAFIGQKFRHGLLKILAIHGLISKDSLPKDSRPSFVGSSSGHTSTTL

As usually defined, the % inhibition is the relative decrease from the control value, in per cent. Consider Tat-NR2B9c (peptide), for which, in experiment [1], the % inhibition came out at 100%.

In experiment [2], YGRKKRRQRRRKLSSIESDV (modifications not checked) [Tat-NR2B9c] had a % inhibition of 80%.
